The values below come from patent US20240228572A1 (I2O THERAPEUTICS, published 2024).

What all share (experiment): cell-based or functional assay
Test [1] deals with T1, human Glucagon receptor (GCGR) (human, UniProt P47871 26-477).
In test [2] the target is T2, human GLP-1 receptor (GLP-1R) (human, UniProt P43220 24-463).
Test [3] has as its target T1, human Glucagon receptor (GCGR). The source holds these as a separate data set.
The target of test [4] is cynomolgus monkey Glucagon receptor (GCGR) (cynomolgus monkey).
Test [5] addresses rat Glucagon receptor (GCGR) (rat, UniProt P30082 27-485).
Test [6] deals with T2, human GLP-1 receptor (GLP-1R). The source holds these as a separate data set.
Test [7] deals with T3, hGIPR (human, UniProt P48546 22-466).
T3 sequence (looked up): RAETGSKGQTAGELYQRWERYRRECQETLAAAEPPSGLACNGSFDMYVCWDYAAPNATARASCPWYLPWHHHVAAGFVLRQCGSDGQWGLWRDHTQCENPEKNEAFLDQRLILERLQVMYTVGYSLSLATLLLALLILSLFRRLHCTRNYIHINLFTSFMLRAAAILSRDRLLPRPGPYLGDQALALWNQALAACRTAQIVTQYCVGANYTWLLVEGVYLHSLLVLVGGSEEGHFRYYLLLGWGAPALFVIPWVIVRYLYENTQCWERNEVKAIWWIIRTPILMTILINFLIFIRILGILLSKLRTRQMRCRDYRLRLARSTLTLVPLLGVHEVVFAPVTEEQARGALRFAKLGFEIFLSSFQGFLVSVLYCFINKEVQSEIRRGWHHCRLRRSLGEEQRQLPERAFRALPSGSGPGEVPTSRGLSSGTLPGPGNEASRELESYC

Like-named read-outs stand apart in the source and are kept apart here. *1 amine or outer side, *2 acyl side, *3 side chain or, on linkers, in order; H or OH if unused. Bridges are numbered along the chain shown (N, C = ends). Primed or numbered codes have the meaning given here. Where no end group is shown, it is not given here. Side-chain parts run from the residue outwards. [ ]: non-standard residue; d: D form. The star is where a group is joined. dpeg″ = spacer —[CO(CH2)O(CH2)2O(CH2)NH]—, O=C(COCCOCN[*:1])[*:2]; dpeg = —[CO(CH2)O(CH2)2O(CH2)NH]— spacer, O=C(COCCOCN[*:1])[*:2]; C20 diacid = O=C(O)CCCCCCCCCCCCCCCCCCC(=O)*; γGlu = O=C(O)[C@H](CCC(=O)[*:2])N[*:1]; Aib = CC(C)(N)C(=O)O

T2 sequence (P43220 24-463): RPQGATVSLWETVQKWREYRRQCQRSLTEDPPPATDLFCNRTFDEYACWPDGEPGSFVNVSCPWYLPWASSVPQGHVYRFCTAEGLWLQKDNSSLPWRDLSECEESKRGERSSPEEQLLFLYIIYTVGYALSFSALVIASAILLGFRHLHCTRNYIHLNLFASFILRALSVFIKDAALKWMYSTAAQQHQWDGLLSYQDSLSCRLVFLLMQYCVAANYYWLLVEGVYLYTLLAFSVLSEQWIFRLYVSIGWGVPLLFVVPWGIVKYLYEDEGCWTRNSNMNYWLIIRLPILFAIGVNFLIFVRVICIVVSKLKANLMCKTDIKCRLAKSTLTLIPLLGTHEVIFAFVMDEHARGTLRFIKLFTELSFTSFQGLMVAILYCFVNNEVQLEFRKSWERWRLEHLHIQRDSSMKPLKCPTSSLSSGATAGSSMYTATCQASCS
rat Glucagon receptor (GCGR), sequence (P30082 27-485): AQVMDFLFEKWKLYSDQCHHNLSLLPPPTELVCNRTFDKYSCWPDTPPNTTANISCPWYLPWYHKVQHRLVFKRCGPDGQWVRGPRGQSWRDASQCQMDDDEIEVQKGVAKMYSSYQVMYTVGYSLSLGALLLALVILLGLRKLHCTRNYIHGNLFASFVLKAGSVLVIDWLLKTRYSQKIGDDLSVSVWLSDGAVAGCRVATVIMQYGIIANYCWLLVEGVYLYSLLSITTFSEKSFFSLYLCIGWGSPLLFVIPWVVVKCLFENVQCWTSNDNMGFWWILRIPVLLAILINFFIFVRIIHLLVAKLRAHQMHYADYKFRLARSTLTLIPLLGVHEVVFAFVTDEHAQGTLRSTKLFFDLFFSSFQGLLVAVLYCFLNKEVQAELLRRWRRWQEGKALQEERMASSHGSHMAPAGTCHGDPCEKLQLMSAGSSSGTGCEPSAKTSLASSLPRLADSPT

B1: Compound A39 (peptide)
peptide: YSHGTFTSDYSKYLD[Aib]KYAKK([γGlu-γGlu-dpeg″-C20 diacid])FVKWLEEEPSSGAPPPS-OH
modifications: lactam 24-28; N-terminus assumed
SMILES: CC(C)C[C@@H]1NC(=O)[C@H](Cc2c[nH]c3ccccc23)NC(=O)[C@@H](NC(=O)[C@@H](NC(=O)[C@H](Cc2ccccc2)NC(=O)[C@H](CCCCNC(=O)CC[C@H](NC(=O)CC[C@H](NC(=O)COCCOCNC(=O)CCCCCCCCCCCCCCCCCCC(=O)O)C(=O)O)C(=O)O)NC(=O)[C@H](CCCCN)NC(=O)[C@H](C)NC(=O)[C@H](Cc2ccc(O)cc2)NC(=O)[C@H](CCCCN)NC(=O)C(C)(C)NC(=O)[C@H](CC(=O)O)NC(=O)[C@H](CC(C)C)NC(=O)[C@H](Cc2ccc(O)cc2)NC(=O)[C@H](CCCCN)NC(=O)[C@H](CO)NC(=O)[C@H](Cc2ccc(O)cc2)NC(=O)[C@H](CC(=O)O)NC(=O)[C@H](CO)NC(=O)[C@@H](NC(=O)[C@H](Cc2ccccc2)NC(=O)[C@@H](NC(=O)CNC(=O)[C@H](Cc2c[nH]cn2)NC(=O)[C@H](CO)NC(=O)[C@@H](N)Cc2ccc(O)cc2)[C@@H](C)O)[C@@H](C)O)C(C)C)CCCCNC(=O)CC[C@@H](C(=O)N[C@@H](CCC(=O)O)C(=O)N2CCC[C@H]2C(=O)N[C@@H](CO)C(=O)N[C@@H](CO)C(=O)NCC(=O)N[C@@H](C)C(=O)N2CCC[C@H]2C(=O)N2CCC[C@H]2C(=O)N2CCC[C@H]2C(=O)N[C@@H](CO)C(=O)O)NC(=O)[C@H](CCC(=O)O)NC1=O
For the molecule B1, the “pEC50, cAMP accumulation” value was 11.7 pEC50 (-log M) in test [1] and < 9 pEC50 (-log M) in test [2].

B2: Compound A6 (peptide)
peptide: YSHGTFTSDYSKYLD[Aib]KYAQK([γGlu-γGlu-dpeg-C20 diacid])FV[Aib]WLEDEPSSGAPPPS-OH
As to B2, the “pEC50, cAMP accumulation” value in test [1] is 12.2 pEC50 (-log M); in test [2], < 7 pEC50 (-log M); in test [3], 12.2 pEC50 (-log M); in test [4], 9.77 pEC50 (-log M); in test [5] it was 10.3 pEC50 (-log M); in test [6] it was < 7 pEC50 (-log M). Moreover, in test [7], the “pEC50, cAMP accumulation” value is < 9 pEC50 (-log M).

B3: Compound A7 (peptide)
peptide: YSHGTFTSDYSKYLDK([γGlu-γGlu-dpeg-C20 diacid])KYAQEF[Aib]QWLEDEPSSGAPPPS-OH
Regarding B3, the entries for the “pEC50, cAMP accumulation” value in test [1] and in test [2] were 10.7 pEC50 (-log M) and < 9 pEC50 (-log M), respectively.
